Non-standard residues stand in square brackets, D forms with d. No end group written: not given here. Sta = CC(C)C[C@H](N)[C@@H](O)CC(=O)O
Columns and labels:
[1] = Solubility of peptide substrate; assay type: physicochemical; conditions: effect of the addition of two lysines
Hu-Asp [2] = target: T1, Hu-Asp (Homo sapiens, UniProt P56817); experiment: Hu-Asp cleavage assay variation for substrates of SEQ ID NO:190 and 191 (Vmax, Km, pH, ionic strength, DMSO); assay type: biochemical; set-up: made in house; host or cells: High Five insect cells; conditions: 100 mM NaOAc/HOAc, pH 4.5 (stated for SEQ ID NO:190 and 191)
T1 sequence (P56817 46-501): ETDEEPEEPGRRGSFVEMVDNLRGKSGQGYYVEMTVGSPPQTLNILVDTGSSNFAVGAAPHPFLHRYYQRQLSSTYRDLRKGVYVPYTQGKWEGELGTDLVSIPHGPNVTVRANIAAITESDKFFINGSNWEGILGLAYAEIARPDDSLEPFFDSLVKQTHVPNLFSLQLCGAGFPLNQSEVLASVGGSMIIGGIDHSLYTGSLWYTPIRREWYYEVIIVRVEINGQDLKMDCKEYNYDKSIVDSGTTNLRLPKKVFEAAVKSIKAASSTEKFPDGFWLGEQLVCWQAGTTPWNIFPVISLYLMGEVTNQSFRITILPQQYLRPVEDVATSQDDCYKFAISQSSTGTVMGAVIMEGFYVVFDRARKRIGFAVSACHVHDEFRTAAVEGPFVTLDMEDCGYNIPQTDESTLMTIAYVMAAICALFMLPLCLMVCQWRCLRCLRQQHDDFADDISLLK
Description: In the substrates SEISY-EVEFRWKK (SEQ ID NO:190) and GLTNIKTEEISEISY-EVEFRWKK (SEQ ID NO:191), the 10 N-terminal amino acids of peptide SEISY-EVEFRWKK (SEQ ID NO:190) are identical to those of peptide SEISY-EVEFR (SEQ ID NO:152). The difference between the two peptide is the presence of a tryptophan and two lysines in the peptide of SEQ ID NO:190. […] Hu-Asp activity was tested towards SEISY-EVEFRWKK (SEQ ID NO:190) and GLTNIKTEEISEISY-EVEFRWKK (SEQ ID NO:191). […] The activity difference between the two peptides was particularly dramatic in the pH range 4.0-4.6. Specifically, it was 6.3-4.8 times higher for the peptide of SEQ ID NO:191. […] Both peptides were inhibited by increasing concentrations of DMSO. […] As expected, the N-terminus elongation increases activity. […] The development of the substrates of SEQ ID NO:190 and SEQ ID NO:191 is of great value in Hu-Asp inhibition studies and in studies concerning recombinant Hu-Asp refolding from E. coli inclusion bodies.
In a variation of the above assay for substrates of SEQ ID NO:190 or its N-terminally extended version depicted in SEQ ID NO:191), the substrates are incubated with the enzyme to a final reaction solution volume of 200 μl (although reaction mixtures of 50-100 μl also were used) composed of 5-50 μM peptide substrate, 1-10 nM enzyme, 0.1. M sodium acetate buffer at pH 4 to 5. […]

Hu-Asp2 [3] = target: T2, Hu-Asp2 (Homo sapiens, UniProt P56817); experiment: Hu-Asp2 peptide substrate cleavage assay (HPLC quantitation of cleavage products); assay type: biochemical
T2 construct: made in house; host or cells: High Five insect cells
T2 sequence (P56817 46-501): as above
Description: The peptides listed in Table 2 were designed, synthesized, and tested for activity as substrates for Hu-Asp2. 200 μM of each test substrate was incubated with 210 nM Hu-Asp2 enzyme at pH 4.5 at 37° C. for 3 hours. Of course it should be understood that these are merely exemplary assay conditions, and those of skill in the art will be able to vary these conditions and yet still provide appropriate Hu-Asp2 activity. For example, it is envisioned that the assays may be conducted at a pH range of from between about 4.0 to about 7.0. The amount of enzyme added to a given reaction mixture may also be varied and those of skill in the art will be able to perform assays defining the optimal enzyme concentrations necessary for a given assay, as such 150 nm; 200 nm; 250 nm; 300 nm or more or less enzyme may be added. Substrate concentration in those also may be varied such that an assay may use 100, 150 μM, 200 μM, 250 μM, 300 μM, 350 μM or more or less of any given; substrate. It may be that one substrate produces an optimum activity at one concentration whereas another substrate is needed to be present at a different concentration to produce an optimum cleavage rate. However, such optimizations of enzyme assay conditions is well within the skill of those in the art and will not require undue experimentation.
In an exemplary assay to determine the cleavage of the substrates of the present invention, Asp2 was prepared from High Five™ insect cells. Generally, the assasy are run in solution at acidic pH (4.0 to 5.0), at 25-37° C. in the presence of nM or sub-nanomolar enzyme. After a suitable period of incubation the reaction is stopped at a desired time by addition of 4% trifluoracetic acid (TFA). Substrates and products are separated using reverse phase HPLC. The disappearance of the substrates and the appearance of the products are monitored by continuous measurement of the absorbance of the effluent at […]. Furthermore, if the peptide comprises a tryptophan residue, the monitoring may additionally or alternatively involve continuous monitoring of fluorescence of tryptophan fluorescence (excitation at 280 nm, emission at […]) of the effluent.
In a typical assay, 210 nM enzyme and 200 μM substrate were incubated in 0.2 M sodium acetate at pH 4.5 in 100 μl volume at 37° C. for 1 to 3 hours. The assay was stopped by the addition of 50 μl 4% TFA to lower the pH below the active range of the enzyme. Subsequently, 100 μl of this mixture was injected into a Hewlett Packard Model 1090 HPLC equipped with a Vydac column (4.6 mm i.d.×150 mm, 5 μm) pre-equilibrated with 95% A (0.15% TFA in water), 5% B (0.15% TFA in acetonitrile). The constituents were then eluted from the column with the following linear gradients: 0-15 min: 5-50% B; 15-17 min: 50-100% B; 17-20 min: 100-5% B; 20-22 min: 5% B). The cleavage products were then quantitated using an enhanced integrator. […]

HEK-293 cells = experiment: ELISA of secreted Aβ40 and Aβ42 in medium of transfected HEK-293 cells; assay type: cell-based, human; conditions: medium of the transfected HEK-293 cells
Description: As one indicator of APP processing, levels of secreted Aβ from the medium of the transfected HEK-293 cells were measured. Measurements were by ELISA using antibody 6E10 (Syntek, St. Louis, Mo.) to capture Aβ and antibody 208 for Aβ40 and antibody 165 for Ap42. […] Using additional constructs in peptide activity assays, it was determined that if an Asn residue was substituted in place of a Ser to give SEVNY-↓-EVEFR (SEQ ID NO:170), this peptide has an activity that is only ⅕ than that of SEVSY-↓-EVEFR (SEQ ID NO:141; Table 4). This observation reaffirms that amino acid optimization at a certain position depends on the rest of the substrate sequence.

Hu-Asp2 [4] = target: T2, Hu-Asp2; experiment: Hu-Asp2 peptide substrate cleavage assay (HPLC quantitation of cleavage products); assay type: biochemical
Hu-Asp [5] = target: T1, Hu-Asp; experiment: Inhibition of HuAsp enzyme activity by statine-containing peptide; assay type: biochemical

## SEISYEVEFRWKK [SEQ ID NO:190, SEISY-EVEFRWKK]
[1]
  solubility: increased solubility
Hu-Asp [2]
  Km: 86.7 µM

## GLTNIKTEEISEISYEVEFRWKK [SEQ ID NO:191, GLTNIKTEEISEISY-EVEFRWKK]
Hu-Asp [2]
  Km: 43.1 µM

## SEVSY-↓-EVEFR (SEVSYEVEFR)
Hu-Asp2 [3]
  activity as substrate of Hu-Asp2 (in words): activity superior to the Swedish mutation
HEK-293 cells
  production of secreted Aβ40 and Aβ42: easily measurable levels of Aβ
Hu-Asp2 [4]; Table 4
  activity compared with Swedish mutant peptide (SEQ ID NO:19): 1.4 fold
Hu-Asp2 [4]; Table 4, 200 nM enzyme, 200 μM substrate, pH 4.5, 37° C., 1 hr, SEQ ID NO:19 = 100
  Relative rate of Cleavage: 141.8
Hu-Asp2 [4]; Table 5, 2 nM enzyme, 50 μM substrate, 25 mM Sodium acetate, pH 4.4, 37° C., 2 hr
  Cleavage Activity: 0.16 µmol/min/mg
Hu-Asp2 [4]; Table 5, 2 nM enzyme, 50 μM substrate, 25 mM Sodium acetate, pH 4.4, 37° C., 2 hr, SEQ ID NO:141 = 100
  Relative rate of Cleavage: 100

## SEVN[Sta]VAEFRGGC [statine-containing peptide]
Hu-Asp [5]
  inhibition of HuAsp enzyme activity: shown to inhibit HuAsp enzyme activity

Reference: US7888291B2, “Substrates and assays for β-secretase” (Elan Pharmaceuticals, Inc., priority 2000, dated 2011)
